# Measurements taken from patent publication US20260168005A1, “DRUG SCREENING METHOD BASED ON DRUG DISCOVERY CONCEPT OF CANCER CELL PROLIFERATION INHIBITION INDUCED BY DISRUPTION OF CHROMOSOME REGULATION DUE TO PLK1 KINASE ACTIVATION” (JAPANESE FOUNDATION FOR CANCER RESEARCH, priority 2022, published 2026).
# No end group written: not given here.
# Assays:
# [1] = tested on: HeLa cells; assay: Cell death on expression of GFP-tagged PON peptide, live cell imaging; assay type: cell-based; details: plasmid transfection, GFP tag at N-terminus, live cell imaging (FIG. 6B)
# From the text: (§1) Plasmids that express WT ([…]: SEQ ID NO: 1) and a TA mutant (Plk1 unbound, […]: SEQ ID NO: 2) of the PON peptide with a GFP tag added to the N-terminus were introduced into HeLa cells by a plasmid transfection method with FuGENE HD transfection Reagent (Promega Corporation) and into RPE1 cells by a nucleofection method with 4D nucleofector (Lonza Group Ltd.). Since the PON peptide binds to the PBD upon phosphorylation by Cdk1, a TA mutant of the PON peptide in which the phosphorylation site was substituted with Ala was used as a negative control.
# (§2) Observation was performed using live cell imaging, and the number of cells that underwent cell death in cells with GFP expression observed was counted. […] In other words, suppression of the association of the PBD and KD of endogenous Plk1 can cause significant cell growth suppression to be induced in cancer cells (FIG. 6B). From the fact that induction of cell death due to Plk1 activation is not observed in normal cells, compounds that activate Plk1 are expected to exert an effect in a cancer cell-specific manner.
# [2] = tested on: RPE1 cells; assay: as above; assay type: cell-based; details: RPE1 normal diploid cells, nucleofection, GFP tag at N-terminus, live cell imaging (FIG. 6B)
# From the text: as §1, §2
# [3] = target: recombinant GST-His-Plk1 (Homo sapiens, UniProt P53350); assay: Intramolecular TR-FRET assay of kinase domain / Polo-Box domain association; assay type: binding; details: Plk1 0 to 100 nM; pPON 0 to 1000 µM, PxVXL 25 to 100 µM; room temperature 1 hour, then GST-Tb and His-d2 3 hours (FIG. 7B)
# recombinant GST-His-Plk1, sequence (P53350 whole entry, the tested form may be a part): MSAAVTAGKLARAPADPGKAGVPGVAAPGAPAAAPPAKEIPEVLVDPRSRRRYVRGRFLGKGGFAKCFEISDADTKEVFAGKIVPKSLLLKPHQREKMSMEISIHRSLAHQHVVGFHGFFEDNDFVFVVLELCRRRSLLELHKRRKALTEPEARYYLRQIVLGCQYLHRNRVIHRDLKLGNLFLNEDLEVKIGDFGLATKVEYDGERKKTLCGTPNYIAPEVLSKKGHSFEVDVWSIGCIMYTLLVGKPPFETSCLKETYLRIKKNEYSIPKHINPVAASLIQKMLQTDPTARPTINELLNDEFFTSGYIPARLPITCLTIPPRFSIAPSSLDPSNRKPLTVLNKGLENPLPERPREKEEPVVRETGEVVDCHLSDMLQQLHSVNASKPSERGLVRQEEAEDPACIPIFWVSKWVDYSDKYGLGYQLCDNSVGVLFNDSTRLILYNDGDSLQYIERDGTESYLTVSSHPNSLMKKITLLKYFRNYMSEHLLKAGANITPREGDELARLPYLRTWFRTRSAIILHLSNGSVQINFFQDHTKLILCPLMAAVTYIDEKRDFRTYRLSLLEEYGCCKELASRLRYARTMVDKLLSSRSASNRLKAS
# From the text: In other words, it is an assay system that reflects the folding state within Plk1 molecules, and a screening system for drug discovery sees according to the mechanism of action of “inhibiting the suppressive association within the molecules to lead to kinase activation”. A fluorescence resonance energy transfer (FRET) assay system that detects the interaction of PBD that suppressively associates with the Plk1 kinase domain was constructed. The design was made as follows: a full-length recombinant protein was purified, and a donor (GST-Tb) were placed in the kinase domain and an acceptor (His-d2) in the PBD using antibodies that act as luminescent agents based on the conformational information so that the FRET reaction would efficiently occur.
# A recombinant Plk1 in which a GST tag was added into a pFastBacl vector at the N-terminus, and a 6His-tag was inserted in the vicinity of the N-terminus of PB1 (Polo-Box 1) was constructed (left in FIG. 7A, GST-His-Plk1). […]
# Intramolecular FRET analysis was performed using the recombinant GST-His-Plk1. […] Then, GST-Tb and His-d2 (PerkinElmer, Inc., MAb Anti-GST-Tb cryptate, MAb Anti-6HIS-d2) were added thereto to react at room temperature for 3 hours, and the emission signals were measured using the time-resolved fluorescence-fluorescence resonance energy transfer method (TR-FRET). […]
# [4] = target: endogenous Plk1 (UniProt P53350); assay: cell-based or functional assay
# endogenous Plk1, sequence (P53350 2-603 limits assumed): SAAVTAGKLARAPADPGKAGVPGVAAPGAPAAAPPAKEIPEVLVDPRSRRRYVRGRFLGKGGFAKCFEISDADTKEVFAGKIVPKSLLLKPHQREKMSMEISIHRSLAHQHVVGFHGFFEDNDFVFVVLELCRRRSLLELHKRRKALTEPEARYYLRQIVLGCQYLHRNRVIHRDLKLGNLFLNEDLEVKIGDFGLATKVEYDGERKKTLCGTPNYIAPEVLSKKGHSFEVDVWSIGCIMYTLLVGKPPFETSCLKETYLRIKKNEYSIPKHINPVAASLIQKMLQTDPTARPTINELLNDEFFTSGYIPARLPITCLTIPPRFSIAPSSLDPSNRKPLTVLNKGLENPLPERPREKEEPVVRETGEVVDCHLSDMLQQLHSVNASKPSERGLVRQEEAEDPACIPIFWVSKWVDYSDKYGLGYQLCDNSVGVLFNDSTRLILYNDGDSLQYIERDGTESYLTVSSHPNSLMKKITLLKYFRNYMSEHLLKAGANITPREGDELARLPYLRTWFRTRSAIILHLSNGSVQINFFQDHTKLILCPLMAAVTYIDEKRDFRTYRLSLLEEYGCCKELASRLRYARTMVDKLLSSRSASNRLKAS
# [5] = target: recombinant GST-His-Plk1 (WT) (Homo sapiens, UniProt P53350); assay: ADP-Glo kinase assay with dephosphorylated casein substrate; assay type: biochemical; details: pPON 0 to 1000 M; 0.5 μg dephosphorylated casein; 5 µM ATP; room temperature 1 hour (FIG. 10A)
# recombinant GST-His-Plk1 (WT) (Homo sapiens, UniProt P53350), sequence (P53350 whole entry): as the sequence (P53350 whole entry, the tested form may be a part) above
# Procedure: Further, the kinase activity of GST-His-Plk1 was evaluated by a kinase assay. First, it was confirmed that the kinase activity of the recombinant GST-His-Plk1, which contained a His-tag for FRET in the molecule, was equivalent to that of the one without the tag. Next, GST-His-Plk1 was used and mixed with 0.5 μg of dephosphorylated casein as a phosphorylation substrate in the presence of pPON ([…]), a kinase reaction was performed at room temperature for 1 hour in the presence of 5 µM of ATP, and a kinase reaction was performed between the recombinant GST-His-Plk1 (WT) (0 to 3.36 μM) and the dephosphorylated casein. Using an ADP-Glo (trademark) kinase assay kit (Promega Corporation), the kinase activity was measured by an ADP-Glo method, which quantifies in the […]. […] Also, the results of the kinase assays using the S137D/T210D mutant and S137D mutant also indicate that high kinase activity can be obtained when the intramolecular association is inhibited (FIG. 10B). Accordingly, the kinase assay can be used as a screening method that detects the association between the kinase domain and PBD of Plk1, and suppression of the association can be detected. Also, in the case of using the kinase assay for screening, a construct in which a kinase domain and PBD are separated can also be used.
# [6] = target: T1, recombinant GST-His-Plk1 (WT) (UniProt P53350 2-603, limits assumed); assay: intramolecular TR-FRET on GST-His-Plk1 (indirect read-out)
# T1 construct: mature; Made in the Baculovirus/Sf9 system and purified on Glutathione Sepharose; also called Plk1 recombinant protein; wild-type GST-His-Plk1; not shown: N-terminal GST tag
# T1 sequence (P53350 2-603 limits assumed): as the sequence (P53350 2-603 limits assumed) above
Molecule,death of cells (percentage of GFP-expressing cells that underwent cell death) [1],FRET signal (His-d2 relative to GST-Tb) [3],also measured
"ESCFTNAAFSSAPKK [TA mutant, reference compound]",about 30%,,
ESCFTNAAFSSTPKK [PON peptide],≥ 70%,,increase in cell death [2]: no increase in cell death was observed
"NHTQCQLVPVVEIGISERON (NHTQCQLVPVVEIGISERQN) [PxVXL, reference compound]",,this effect was not observed,
PON peptide WT with a GFP tag added to the N-terminus,,,percentage of cell death in GFP-expressing HeLa cells (live cell imaging) [4]: > 70%
"pPON: pPON peptide (SEQ ID NO: 1) reacted with recombinant Plk1 in FRET and kinase assays (ESCFTNAAFSSTPKK; also: phosphorylated, position not given here)",,FRET signals were reproducibly observed to gradually decrease,kinase activity [5]: kinase activity increased depending on the amount of pPON added
NHTQCQLVPVVEIGISERQN (Printed in the text as NHTQCQLVPVVEIGISERON; The 'O' may be a printing error) [PxVXL peptide (negative control peptide that does not bind to PLK1)],,,binding result [6]: no binding (tested: 25 to 100 UM)
